Source: US20120189639A1 (Merck Sharp & Dohme, published 2012)
Blank lines part the entries; values can stand above or below the binder they belong to.

Assays:
hGITR-hIgG [1] = target: T1, hGITR-hIgG (human, UniProt Q9Y5U5 26-161, limits assumed); experiment: BIAcore SPR; hGITR-hIgG capture antigen, mAb analyte; apparent Kd
T1 construct: not shown: human IgG part of the fusion
T1 sequence: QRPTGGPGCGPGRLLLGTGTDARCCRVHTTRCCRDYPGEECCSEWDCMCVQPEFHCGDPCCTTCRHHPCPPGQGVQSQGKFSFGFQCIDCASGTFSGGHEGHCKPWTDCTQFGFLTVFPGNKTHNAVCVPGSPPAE
Experimental: (§1) BIAcore determinations are performed essentially as described at Example 4 of co-pending, commonly assigned U.S. patent application Ser. No. 11/511,635 (filed 29 Aug. 2006). Briefly, binding partners are immobilized on a BIAcore CM5 sensor chip using standard amine-coupling procedure. Kinetic constants for the various interactions are determined using BIAevaluation software 3.1. The Kd is determined using the calculated dissociation and association rate constants.

hGITR-hIgG [2] = target: T1, hGITR-hIgG; experiment: BIAcore SPR; hGITR-hIgG capture antigen, mAb analyte
Experimental: as §1

[3] = target: T2, human GITR on naïve CD4+ T cells (human, UniProt Q9Y5U5 26-241); experiment: cell-based or functional assay
T2 sequence: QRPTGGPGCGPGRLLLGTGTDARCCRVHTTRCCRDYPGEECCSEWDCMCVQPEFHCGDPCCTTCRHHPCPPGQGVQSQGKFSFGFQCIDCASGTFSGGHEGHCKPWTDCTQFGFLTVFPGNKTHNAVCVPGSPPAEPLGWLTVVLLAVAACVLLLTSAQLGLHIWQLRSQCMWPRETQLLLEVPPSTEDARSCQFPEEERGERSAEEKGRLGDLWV

[4] = target: T2, human GITR on naïve CD4+ T cells; experiment: cell-based or functional assay; remark: listed apart in the source

Kd (hGITR-hIgG [1]): 12.2 nM | koff (hGITR-hIgG [2]): 0.0135 s⁻¹ | kon (hGITR-hIgG [2]): 1.11e+06 M⁻¹ s⁻¹ | proliferation of naïve CD4+ T cells, mean, at 0.04 ng/mL Ab [3]: 34900 | proliferation of naïve CD4+ T cells, mean, at 0.15 ng/mL Ab [3]: 32000 | proliferation of naïve CD4+ T cells, mean, at 0.61 ng/mL Ab [3]: 37600 | proliferation of naïve CD4+ T cells, mean, at 2.4 ng/mL Ab [3]: 61300 | proliferation of naïve CD4+ T cells, mean, at 9.8 ng/mL Ab [3]: 96300 | proliferation of naïve CD4+ T cells, mean, at 39.1 ng/mL Ab [3]: 107000 | proliferation of naïve CD4+ T cells, mean, at 156 ng/mL Ab [3]: 108000 | proliferation of naïve CD4+ T cells, mean, at 625 ng/mL Ab [3]: 105000 | proliferation of naïve CD4+ T cells, mean, at 2500 ng/mL Ab [3]: 96300 | proliferation of naïve CD4+ T cells, mean, at 10000 ng/mL Ab [3]: 93400
B1: 61F6 (antibody, V domains shown)
VH: QVQLQQSGAELARPGASVKMSCKASGYTFTSYTMHWVKQRPGQGLEWIGYINPRSVYTNYNQKFKDKATLTADKSSSTAYMQLSSLTSEDSAVYYCARLGGYYDTMDYWGQGTSVTVSS
VL: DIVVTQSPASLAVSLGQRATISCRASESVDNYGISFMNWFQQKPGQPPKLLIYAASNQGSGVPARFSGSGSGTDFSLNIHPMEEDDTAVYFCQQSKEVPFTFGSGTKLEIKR
notes: Parental rodent anti-human GITR monoclonal antibody from a hybridoma; kappa VL; also called 61F6.B9; hybridoma PTA-9893

Kd (hGITR-hIgG [1]): 0.205 nM | koff (hGITR-hIgG [2]): 0.000177 s⁻¹ | kon (hGITR-hIgG [2]): 864000 M⁻¹ s⁻¹ | proliferation of naïve CD4+ T cells, mean, at 0.04 ng/mL Ab [3]: 27500 | proliferation of naïve CD4+ T cells, mean, at 0.15 ng/mL Ab [3]: 26200 | proliferation of naïve CD4+ T cells, mean, at 0.61 ng/mL Ab [3]: 31000 | proliferation of naïve CD4+ T cells, mean, at 2.4 ng/mL Ab [3]: 47500 | proliferation of naïve CD4+ T cells, mean, at 9.8 ng/mL Ab [3]: 78700 | proliferation of naïve CD4+ T cells, mean, at 39.1 ng/mL Ab [3]: 90300 | proliferation of naïve CD4+ T cells, mean, at 156 ng/mL Ab [3]: 97100 | proliferation of naïve CD4+ T cells, mean, at 625 ng/mL Ab [3]: 82100 | proliferation of naïve CD4+ T cells, mean, at 2500 ng/mL Ab [3]: 71800 | proliferation of naïve CD4+ T cells, mean, at 10000 ng/mL Ab [3]: 83800
B2: 36E5 (antibody, V domains shown)
VH: EVNLVESGGGLVKPGGSLKVSCAASGFTFSSYAMSWVRQTPEKRLEWVASISSGGTTYYPDSVKGRFTISRDNARNILYLQMSSLRSEDTAMYYCARVGGYYDSMDYWGQGISVTDSS
VL: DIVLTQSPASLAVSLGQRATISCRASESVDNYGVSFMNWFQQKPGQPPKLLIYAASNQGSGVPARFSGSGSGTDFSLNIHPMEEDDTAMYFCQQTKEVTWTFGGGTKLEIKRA
notes: Parental rodent anti-human GITR monoclonal antibody from a hybridoma; kappa VL; also called 36E5.A5

Kd (hGITR-hIgG [1]): 0.111 nM | koff (hGITR-hIgG [2]): 0.000146 s⁻¹ | kon (hGITR-hIgG [2]): 1.31e+06 M⁻¹ s⁻¹ | proliferation of naïve CD4+ T cells, mean, at 0.4 ng/mL Ab [4]: 58700 | proliferation of naïve CD4+ T cells, mean, at 0.9 ng/mL Ab [4]: 62000 | proliferation of naïve CD4+ T cells, mean, at 2.2 ng/mL Ab [4]: 73400 | proliferation of naïve CD4+ T cells, mean, at 5.2 ng/mL Ab [4]: 77800 | proliferation of naïve CD4+ T cells, mean, at 12.6 ng/mL Ab [4]: 90200 | proliferation of naïve CD4+ T cells, mean, at 30.1 ng/mL Ab [4]: 87000 | proliferation of naïve CD4+ T cells, mean, at 72.3 ng/mL Ab [4]: 83500 | proliferation of naïve CD4+ T cells, mean, at 173.6 ng/mL Ab [4]: 87500 | proliferation of naïve CD4+ T cells, mean, at 416.7 ng/mL Ab [4]: 85700 | proliferation of naïve CD4+ T cells, mean, at 1000.0 ng/mL Ab [4]: 89400
B3: 17F10 (antibody, V domains shown)
VH: EVKLVESGGGFVKPGGSLKLSCAASGFTVRNYAMSWVRQTPEKRLEWVASISTGDRSYLPDSMKGRFTISRDNARNILYLQMSSLRSEDTAIYYCQRYFDFDSFAFWGQGTLVTVSA
VL: DIQMTQTPSSLSASLGDRVTISCRASQDINNFLNWYQQKPDGSLKLLIYYTSKLHSGVPSRFSGSGSGTDFSLTISNLDQEDVATYFCQQGHTLPPTFGGGTKLEVKR
notes: Parental rodent anti-human GITR monoclonal antibody from a hybridoma; kappa VL; also called 17F10.B1

Kd (hGITR-hIgG [1]): 0.458 nM | koff (hGITR-hIgG [2]): 0.000196 s⁻¹ | kon (hGITR-hIgG [2]): 428000 M⁻¹ s⁻¹ | proliferation of naïve CD4+ T cells, mean, at 0.4 ng/mL Ab [4]: 60800 | proliferation of naïve CD4+ T cells, mean, at 0.9 ng/mL Ab [4]: 64800 | proliferation of naïve CD4+ T cells, mean, at 2.2 ng/mL Ab [4]: 78500 | proliferation of naïve CD4+ T cells, mean, at 5.2 ng/mL Ab [4]: 98200 | proliferation of naïve CD4+ T cells, mean, at 12.6 ng/mL Ab [4]: 115000 | proliferation of naïve CD4+ T cells, mean, at 30.1 ng/mL Ab [4]: 112000 | proliferation of naïve CD4+ T cells, mean, at 72.3 ng/mL Ab [4]: 103000 | proliferation of naïve CD4+ T cells, mean, at 173.6 ng/mL Ab [4]: 91000
B4: 1D8 (antibody, V domains shown)
VH: QVTLKESGPGILKPSQTLSLTCSFSGFSLSTSGMGVGWIRQPSGKGLEWLAHIWWDDDKYYSPSLKSQLTISKDTSRNQVFLKITSLDTADTATYYCVRSYYYGSSGAMDYWGQGTSVTVSS
VL: DIVMTQTPLSLPVSLGDQASISCRSSQSLVHSDGNTYLHWYLQKPGQSPKLLIYKVSKRFSGVPDRFSGSGSGTDFTLKISRVEAEDLGVYFCSQSTHVPPTFGGGTKLEIKR
notes: Parental rodent anti-human GITR monoclonal antibody from a hybridoma; kappa VL; also called 1D8.B5

Kd (hGITR-hIgG [1]): 15.6 nM | koff (hGITR-hIgG [2]): 6.9e-05 s⁻¹ | kon (hGITR-hIgG [2]): 4000 M⁻¹ s⁻¹ | proliferation of naïve CD4+ T cells, mean, at 0.04 ng/mL Ab [3]: 31000 | proliferation of naïve CD4+ T cells, mean, at 0.15 ng/mL Ab [3]: 35600 | proliferation of naïve CD4+ T cells, mean, at 0.61 ng/mL Ab [3]: 32600 | proliferation of naïve CD4+ T cells, mean, at 2.4 ng/mL Ab [3]: 28900 | proliferation of naïve CD4+ T cells, mean, at 9.8 ng/mL Ab [3]: 34300 | proliferation of naïve CD4+ T cells, mean, at 39.1 ng/mL Ab [3]: 40100 | proliferation of naïve CD4+ T cells, mean, at 156 ng/mL Ab [3]: 45600 | proliferation of naïve CD4+ T cells, mean, at 625 ng/mL Ab [3]: 75100 | proliferation of naïve CD4+ T cells, mean, at 2500 ng/mL Ab [3]: 116000 | proliferation of naïve CD4+ T cells, mean, at 10000 ng/mL Ab [3]: 135000
B5: 61G6 (antibody, V domains shown)
VH: DVQLQESGPGLVKPSQSLSLTCTVTGYSITSDYAWNWIRQFPGNKLEWMGYISYSGSTRYNPSLKSRISITRDTSKNQFFLQLNSVTSEDTATYYCARQLGLRFFDYWGQGTTLTVSS
VL: QIVLTQSPALMSASPGEKVTMTCSANSTVNYMYWYQQKPRSSPKPCIYLTSNLASGVPARFSGSGSGTSYSLTISSMEAEDAATYYCQQWNSNPPTFGAGTKLELRR
notes: Parental rodent anti-human GITR monoclonal antibody from a hybridoma; kappa VL; also called 61G6.B6; hybridoma PTA-9891
